# Test results as given in FireProtDB (doi:10.1021/bi034520t).
# B1: DNA-binding protein 7d wild type, P39476 (protein)
# chain: MATVKFKYKGEEKEVDISKIKKVWRVGKMISFTYDEGGGKTGRGAVSEKDAPKELLQMLEKQKK
# Conditions: Saccharolobus solfataricus (strain ATCC 35092 / DSM 1617 / JCM 11322 / P2), Thermal, CD, phosphate 10 mM, reversible: yes, whole UniProt chain shown
protein,measurement,setting,value
B1,Tm,pH 3,80 °C
same,unfolding enthalpy (van 't Hoff),pH 3,210 kJ/mol
same,Tm,pH 4,95 °C
same,unfolding enthalpy (van 't Hoff),pH 4,240 kJ/mol
same,Tm,pH 5,98.5 °C
same,unfolding enthalpy (van 't Hoff),pH 5,260 kJ/mol
same,Tm,pH 6,99 °C
same,unfolding enthalpy (van 't Hoff),pH 6,270 kJ/mol
same,Tm,pH 7,98 °C
same,unfolding enthalpy (van 't Hoff),pH 7,270 kJ/mol
same,Tm,pH 8,97.5 °C
same,unfolding enthalpy (van 't Hoff),pH 8,260 kJ/mol
same,Tm,pH 9,97 °C
same,unfolding enthalpy (van 't Hoff),pH 9,250 kJ/mol
